Like-named read-outs stand apart in the source and are kept apart here. One block for each binder: values may come before it.
Tests used:
Test in all cases: phage panning
[1] = target: T1, recombinant human β-Klotho (human, UniProt Q86Z14 53-996, limits assumed, biotinylated in the AlphaScreen assays (site not stated))
T1 construct: also called rhβ-klotho; huβKlotho-His
T1 sequence: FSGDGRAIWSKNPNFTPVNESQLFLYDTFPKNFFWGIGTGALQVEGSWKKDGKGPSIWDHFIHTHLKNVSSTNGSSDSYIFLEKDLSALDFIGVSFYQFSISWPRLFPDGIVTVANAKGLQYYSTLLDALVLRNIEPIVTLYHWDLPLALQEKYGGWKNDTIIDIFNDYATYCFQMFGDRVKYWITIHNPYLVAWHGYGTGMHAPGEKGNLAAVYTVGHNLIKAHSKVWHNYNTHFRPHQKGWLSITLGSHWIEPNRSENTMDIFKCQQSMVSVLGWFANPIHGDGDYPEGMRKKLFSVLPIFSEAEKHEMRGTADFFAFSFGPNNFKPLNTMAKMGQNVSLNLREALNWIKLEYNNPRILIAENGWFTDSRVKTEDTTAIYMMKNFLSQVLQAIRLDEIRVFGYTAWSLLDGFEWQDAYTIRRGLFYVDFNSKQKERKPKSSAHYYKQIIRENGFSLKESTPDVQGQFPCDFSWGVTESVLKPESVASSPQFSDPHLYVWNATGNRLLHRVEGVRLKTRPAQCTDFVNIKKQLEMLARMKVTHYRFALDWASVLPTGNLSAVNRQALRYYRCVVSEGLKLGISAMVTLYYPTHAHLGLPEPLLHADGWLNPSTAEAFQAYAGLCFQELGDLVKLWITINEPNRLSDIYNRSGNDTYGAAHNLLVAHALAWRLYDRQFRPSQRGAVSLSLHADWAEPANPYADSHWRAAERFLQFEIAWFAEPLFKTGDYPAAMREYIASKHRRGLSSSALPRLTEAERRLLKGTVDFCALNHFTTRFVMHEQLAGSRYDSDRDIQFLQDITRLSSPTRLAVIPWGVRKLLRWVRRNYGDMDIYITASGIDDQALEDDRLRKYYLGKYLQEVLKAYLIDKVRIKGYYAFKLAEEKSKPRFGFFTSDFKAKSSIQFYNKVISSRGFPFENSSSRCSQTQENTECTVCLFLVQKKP

[2] = target: T1, recombinant human β-Klotho; remark: listed apart in the source
[3] = target: T1, recombinant human β-Klotho; remark: listed apart in the source
[4] = target: T1, recombinant human β-Klotho; remark: listed apart in the source
human FGFR1c-Fc = target: T2, human FGFR1c-Fc (human, UniProt P11362 22-376)
T2 construct: also called huFGFR1c-Fc; huFGFR1c/Fc
T2 sequence: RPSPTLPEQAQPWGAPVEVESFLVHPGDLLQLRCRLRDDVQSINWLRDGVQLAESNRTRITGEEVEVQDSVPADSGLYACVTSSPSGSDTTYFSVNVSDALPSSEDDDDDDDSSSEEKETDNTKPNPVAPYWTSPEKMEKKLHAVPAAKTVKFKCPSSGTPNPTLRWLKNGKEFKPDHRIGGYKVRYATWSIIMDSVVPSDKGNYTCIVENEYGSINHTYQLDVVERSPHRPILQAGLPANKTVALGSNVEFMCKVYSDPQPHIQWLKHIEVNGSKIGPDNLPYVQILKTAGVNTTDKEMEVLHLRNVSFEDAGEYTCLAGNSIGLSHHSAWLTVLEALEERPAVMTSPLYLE

[5] = target: T1, recombinant human β-Klotho; remark: listed apart in the source
[6] = target: T1, recombinant human β-Klotho; remark: listed apart in the source

binding result [1]: binds
B1: β-Klotho walked dimer bKWD01 (designed binder)
chain: CLPDEFQCGSGRCIPQHWLCDGLNDCGDGSDEPPAHCSAPASEPPGSLCRAGEFRCSNGRCVPLTWLCDGEDDCQDNSDEKNCAQPT

binding result [2]: binds
B2: β-Klotho walked dimer BK_R1c_D22 (designed binder)
chain: CQPDEFTCSSGRCIPQPWLCDGLNDCGDGSDEPPAHCSAPASEPPGSLCRPDEFRCKNGRCIPQTWVCDGEDDCQDSSDETDCESTVRT

binding result [3]: binds
B3: β-Klotho walked dimer BK_R1c_D18 (designed binder)
chain: CPPDEFQCRGTKKCLPLAWVCDGDNDCEDDSDEESCASAVHTCQSNEFRCRSGRCIPQHWLCDGLNDCGDGSDESQQCSAPASEPPGSL

binding result [4]: binds
B4: β-Klotho walked dimer BK_R1c_D24 (designed binder)
chain: CRPDEFPCRSTGRCVPRRWVCDGVDDCGDNSDESLAHCQTPTCQPDEFTCSSGRCIPQPWLCDGLNDCGDGSDEPPAHCSAPASEPPGSL

binding result [1]: binds
B5: β-Klotho walked dimer BK_R1c_D14 (designed binder)
chain: CLPDEFQCGSGRCIPQTWVCDGLNDCGDGSDEPPAHCSAPASEPPGSLCRSDEFRCGNGRCIPLTWVCDGEDDCQDSSDETGCTTPGHT

binding result (human FGFR1c-Fc): binds
Binder: CGAGLFTCRSTNICISQVWVCDGVDDCEDNSDEDSCSAPASEPPGSL (designed binder, also called M03mutM01) [FGFR1c-binding monomer M03mut01]

binding result [5]: binds
B6: β-Klotho-binding monomer bKmutM28 (designed binder)
chain: CPWFHHFKCRNGQRIPLHLVCDGVPDCGDDSDETDCGDSHILPFSTPGPST

binding result [6]: binds
B7: β-Klotho walked dimer BK_R1c_D05 (designed binder)
chain: CAAGQFRCHNSDTCLPGAWVCDGDNDCGDNSDEASCQKRTCHSFNQFECRNGQCIPLHLVCDGVPDCGDNSDETDCGDSHILPFSTPGPST

binding result [1]: binds
B8: β-Klotho walked dimer BK_R1c_D15 (designed binder)
chain: CLPDEFQCGSGRCIPQTWVCDGLNDCGDGSDEPPAHCSAPASEPPGSLCRSNQFTCGNGNCIPQPWVCDGEDDCGDDSDEESCKEHT

From patent publication US20130197191A1 (Amgen, published 2013)
